# Results from the DeepSol protein solubility set.
# Experiment: soluble on expression in E. coli; label from the status in PepcDB or PDB records
row,Sequence,soluble on expression in E. coli
1,MGSDKIHHHHHHMSKLAAFLGRAIPTHQQKQSSHLGDRTLYVGASDIAGCPRKAALGKQNPTGHDIKTLLRFSRGHAAQAMYADFFRTGGALFEEEVEVRHPAIPEIRCHIDFLFYANRQTKRLHIVEMKSTDGIPDEPYASWVDQLHVQMGLLQLTLDPAVEIGGSILVVDLNAGSYHEFNSYTPNRLVFDQLVEKGKHILAAARGECAPRTEPGILCGYCPFRTGCPSHAVALDLPREILDTGRKYLELNEQKKALENRLDVLKNDILTFADGTFKGASDGILINVTSVADSTTIDSYKLKRNYPDIYDQVTKPKSGYVKLEIKPFTPLAAQAA,not soluble
2,MGSDKIHHHHHHMSLITDLPAIFDQFSEARQKGFLTVMDLKEQNVPLVGTYCTFMPQEIAMAAGAVVVSLCSTSDETIEEAEKDLPRNLCPLIKSSYGFGKTDKCPYFYFSDLVVGETTCDGKKKMYEYMAEFKAVHVMQLPNSASDAASRALWKTEILRLQQVIEARFGTPISEAALREAIVLKNRERRALAHFYRLGQLNPPALSGGDILKVVYGATFRFDKTALIDELHAMAERIHQEWQQGKRLEPRPRILITGCPIGGAAEKVVRAIEENGGWVVGYENCTGAKATERCVAEEGDVYDALTDKYLAIGCSCISPNDQRLQLLSQMVEEYQADGVIDVILQACHTYAVESLAIKRHLRQQHDLPYMAIETDYSTADLGQLSTRVAAFIEML,not soluble
3,MGSDKIHHHHHHMSLRKNLALGSSTVLLTAVLSGCVSLDERSTDTSTENVTTVTATLTSTAAAEPTTRTTVQSATEASTTAPVQCNLDPRTSDFGPYLAQSRTPVGELAGSADSVVQVPDWFYHFQMGDNGYDSCSKLSYVVLNGSNGDAERSTGTGAAIADVVVLFIDGHMVARPAPFEMKTVESVTRVSDSEIQVVYGHAGRSTAEGVTDYFTFNFFVDNGVLSGRGDLPEHIDTHMRLYLL,not soluble
4,MGSDKIHHHHHHMSNIYDAVVVGSGPNGLAAAITLQRKGFAVLVLEAKDTIGGGLRTKELTLPGFKHDVCSAIHPMAVASPFFADIPLDKFGLRFTHAPIAAAHPFDHGGAAILSRSLKDTIALLGKDADNYKRLIEPVIESWPDIAADAMGPLRFPKHPLKMAAFGLNAIRSADCISKRFETEEAKGLWAGMAAHSIQPLTNWASAAIGLVLSAVGHLHGWPIPIGGSQAIADALGSYFISLGGTIQTNVEVTSLNQLPAARAVLFDVTPKQLLKITGDEFSGLYKKQLTNYRYGMGVFKVDWALSEPVPFTSDHCRQAGTVHLGNTFNEIALSEQETSSGKHPEKPFVLFAQQSKFDITRAPQGKHTAWAYCHVPNGSATDMTAAIENQLERFAPGFKDTILAKNTMNTVEIQAYNPNYIGGDINGGIIDIRQLYTRPAVKISPYRTPKKGIYICSSSTPPGGGVHGMCGFHAAQAVIQDLKKQYK,not soluble
5,MGSDKIHHHHHHMSNQYHNFNSQIESHILFYGHQKCKPDEYFDGTNLRKNDILYYVLDGKGTFNSSGHHVAKLAKGDLFLVPRSRTCYFEADHDNPWEYFWIGLSGAGTNEMIKASNLPNKNFLRQIQKTEFFETLKELYSTLNEDSSLLNNVKIASLTYQLFYHLIDEFPNHPSIRKTPKIDQYQIAIDYLNKNYTDPTCNIVELCNRLGVSRSFLYSLFRKNTKISPQKYLMQLRMEAAKKELLNTTHNLKEIARKVGYGDEFTFSKAFKRYSGVSPNVFRGK,not soluble
6,MGSDKIHHHHHHMSPLAYSVANVNLESSHPTGALSVNLLSGRDVRRWDDFVSCCREATFFHRAGWQTVIERAFGHKTWFLYAECEGEIQGVLPLAEINSRLFGHSLSSLPFCVYGGIAADSQTVRDALDRSAQKLAQELQVDYLEYRNLKPHHADWHGKDLYVTFRKEIASEIEQNMSAIPRKQRAMVRKGIKAGLESVVDQDIERFFSAYSASVHRLGTPVFSRKYFRLLKEVFAEDCELMIIVKDNRTISAVMSFYFRDEVLPYYGGGTGEAREVAGNDFMYWELMRRACEKGCKVFDFGRSKRGSGSFDFKKNWGFEPQPLHYEYQLHQAKEVPDHNPLNPRYQIFIKAWQKLPLGLANLVGPHIVRNLG,not soluble
7,MGSDKIHHHHHHMSQDDLLSQEEIDALLKGVSGDEDNAQDERASREGKVRPFDPAKQHRIIRERLHALDIINERFARQFRVALFNLMRRSADITVESVRYQSYSEFSRNLPVPTNLNLITMKPLRGSALVVFPPSLVFMVVDNLFGGDGRFLTKSEGREFTRTEQRIIHRMLKMALEGYSESWKSVYPLDIEYTRSELQVKFANITNSPNEIVVNSTFHVEVGNLSSEFNICIPYSMIEPIRDILASPLHDTHPDEEQQWEARMAHEIRHSSVELTADFVDIPLRLRDVTQLSVGDIIPIELPEAVNVSVDGIPVMTCDYGSQKSQRALRVRHLIEHGSSQVAAKDPKDD,not soluble
8,MGSDKIHHHHHHMSQFIDILRQHLADFQWRYAHQITPEIQDAIHAMLSCRCNTARVSCCEQQREFPLSCGHRSCPQCQHGTTCDWLSKQQAKLLPVNYFMVTFTLPFELRAIAKSQPDLLYHALFTVAASVLKDFAVRSPKLSGDIGFTGVLHTYSRRRDYHPHLHCIIPAGSYHPGKRQWRKCQTHYLFNAFNLAKVWRARLLTYLSDRLQLKLPH,not soluble
9,MGSDKIHHHHHHMSQHVLLNSVDHKDIKIITERSAKYGDNVWFSVTFPAEFRSVQAHYPIFFQKDQTTGQFFAVALYGFQNNENLFLNNGTWQASYIPLTQRRQPFLIGQQSVREDGVERKQRVIHIDIASPRVSTTEGEALFHPYGGNTQYLDDIGDMLEGIHHGLIDSKHFIDLLIEHQLLESFTLDVKLDNGQQHQMMGFYTINEDTLASLSAEVLAQLHIKDYLKAIYMALASQARVRDLLNLKNAQG,not soluble
10,MGSDKIHHHHHHMSQIIAIHSFRGGTGKSNIIANIGATMALKGQRVGIIDTDIQSPGIHIIFGLKEEKIRLTLNDYLWKRCDIQDTAYDVTDTLIAESGNTDKIRGSLYLIPSSIKAAEIARVLREGYDVVRLHDGFQEIIRSLKLDYLLIDTHPGLNEETLISIGIANTLLIILRPDNQDFQGTAVTVDVARKLKAARILLVLNKALASFNFTDLQQQLEQIYDVPVVGILPLAEDMVQLASKGLFCLRYPQHPITQTIQEITDQLAGLVVSHQ,not soluble
11,MGSDKIHHHHHHMSQQEFDVLVIGAGISGAALFYELARYTNIKNIALIEKYNTAATLNSKGTSNSQTIHCGDIETNYTLEKARKVKRTADMIVKYGLMQNAQNNFMFSHQKMALAVGDIECDYMKKRYEEFKELYPYIKFFDKAKIKQIEPKVVLGEDCNQDRPENICAMGVESGEVFTTVDFGKMSINLIEQAQKQNKNTFVAFNQEIIHIEKKDDIFILKTSNHQEYHAKSVVVNAGAHSLYLAHKMNLGMDKSCWPVAGSFYLTKQKLLNGKVYMVQNPKLPFAALHGDPDLLADMNTRFGPTALVIPKLERYHGLKSVPEFFEALKLDKTVLKVTFNMFKDATIRNYIFYNYLFELPFVDKSLFVKDAKKIVPSLKASDIYYAKGFGGVRPQVIDKTKGELMLGEASITETPGIIFNMTPSPGATSCLGNAERDAKLVCNYLGMEFNEDKFSSELL,not soluble
12,MGSDKIHHHHHHMSQSMVGKHAMWPKENDVIFSISGRAQAAEKAFGMDNVINATIGALMDDSGKLITMKTVYEEYKALDNCEIGAYAALEGQPDYLEAVKKVFFRDYLPEGHIRVLASPGGSGAIKLAVWNYTNEGDEVLTSDWFWSPYVSIAEEANRKVVNYQLFDENRRFNFESFKEKFVNIAEKQGRVFTIINTPAHNPTGYSVADDEWDKILDLSKEVAKDKDKKIIFFVDSAYIDFAGDDDVCRKFFKKFSNLPENVLVLVGFSMSKGFTAYGMRMGAIICISSSEDVAEEFHYSCVHSCRANWSNCNRSAMAVLSNIVNDPKKFKEYEDEKEIYKNMLTRRADVFVKEAERVGLEILPYIAGFFVSIPCDNPKEVCEELTKHNLFAVPLKMGLRFAVCAVSEDKCKKAPSIIKEALESLEVKINN,not soluble
13,MGSDKIHHHHHHMSQTTLSTIPRLIGQVLSIYDVAPEAIFSAANIDITSDAQTRVPMENMATLWKLAVEATHNNELGLVAASLFQPVYLKSIGLAWLASENLEEGLKRYIASSQLINTEMQIELTERDGIDGEETLIQYQRRLTSSNTIKVHPCAIELGIGFFLKMFRLAAGKNIPATGVYFTFAIEENNKVYEEYFQCPVYGNQAVNGIAFSKALLTETLPTHDVELVEMNEVVINKHLDSMDNGETSSKVIKMINDLLPLGCPTEEVIAYKLHMSKRTLQRKLSVEKQSFLALLTSVRLMLAKEKLANKRVSVTEITYQLGYSSPSTFARAFKKHTQLSPLEYRNQVSSYSSCS,not soluble
14,MGSDKIHHHHHHMSRAPDTWILTADCPSMLGTVDVVTRYLFEQRCYVTEHHSFDDRQSGRFFIRVEFRQPDDFDEAGFRAGLAERSEAFGMAFELTAPNHRPKVVIMVSKADHCLNDLLYRQRIGQLGMDVVAVVSNHPDLEPLAHWHKIPYYHFALDPKDKPGQERKVLQVIEETGAELVILARYMQVLSPELCRRLDGWAINIHHSLLPGFKGAKPYHQAYNKGVKMVGATAHYINNDLDEGPIIAQGVEVVDHSHYPEDLIAKGRDIECLTLARAVGYHIERRVFLNANRTVVL,not soluble
15,MGSDKIHHHHHHMSREINAGGHHFLYGGISRGVHYWDNKDFSEQSLRLSFGHQNRSVTRSFGTVPFVGQNLLGGSRYNFAGGFNADFSRRLGERWRLTLNAGNMWKHYQEDRTAARYGSHMPLAGATLMYSAPKDRLLYGGADWPHDMTKEAEQASVRKGLRVGAVKTFDGGLGLRANLRYTRRTFDAPGTIVYRFPRKDHEYQANLSLRHDKISWKGFTPQLNFRYLKIGSNMKSFYTRKNTQIFMSVEKDFK,not soluble
16,MGSDKIHHHHHHMSRSPFQTFVWRSEIFECQSTDIQRFYSLLAIETERLGLGSKILGQAGHHPLYLLQSPGQKAGLPNLLISAGFHGEESAGPWGLLHFLSQLDGELFKRVNLSVLPLVNPTGFAKGHRFNELGENPNRGFFIENGKAKPGADTSAEGRILLEHAHLLQVASRDGILTCHEDVLMTDTYVYTFEPSQAPGRFSHSLRDALGQYFPIAADGDVDNCPVRSGVIFNHFDTSFESFLVRSGARVGCCSETPGQQPLDQRILANAAAMNTFVNMLAPELS,not soluble
17,MGSDKIHHHHHHMSSDIHLAFAHPSERSAATARPGALDRISLRDHIVEVEIGAFQQERGTTQRVCFNVVVEIAPLPADLDDDVDRILSYDKVTEAIAHELARERLALLETLAERVAERILWEPQAVRAFVRIEKLDRGPGKLGVEIVRSADQVSHEADEDVKPHPRLMFLSNAAIDSDNLTGWIDQMECRERPLILCVGAHDLALPQTGHKWTQRRIDLLAIEQNAWRLAARDSRCKVVETRTELDWAMKNGQICVWAPSKIVLDAVEGPSEPPSNAVALAAWFASTFEAEEMIVIGAELPENPGVPLRAHAEEQHTL,not soluble
18,MGSDKIHHHHHHMSSHQPAPPARPTNKVFIIGLPRTGTTSVSVALLEMGLRVAHQAFTKQAVILADAISDAPCFSDYRQLHSLYPDAKFIYLDRPLDAWVPSMQMLLSRMLVHLDKERGRFHPLLKRSFGHTFGIYRVADPMDAEHLKTCYQVHKQQVFDYFHQDQGLAQQFLSLQLDDPQSLPRLANFIGLDAQVDSPQLAFPHLNRGRNVASWDEYKHELKISSNLAGPENRKYFNYKI,not soluble
19,MGSDKIHHHHHHMSSLINDIHAEDVANYLNRNREFFHVFPNLLNELSIPHPKSGHEVSLLERQVFQLREQRDSLQVEVDTLKDIAGENGALLHKVYDLSYALLAAESEQEAVNVVYDVMHDVFTVEEVTIISWEVPKSSVHGVNQLGISQAWSQSLKETLQPGKPVCGLLEDSWQKGLFHTDKAMQSVCVIPLGQQRVWGALALGATTDRFSPELGTYFLKVMGQMVTARLQRLF,not soluble
